This note sets out measurements from PMC2995041.

Common to all, as to test: EMSA
Background: A gel shift assay detects complexes by their altered migration in electrophoresis.

Data set [1] has as its target T1, BLM HRDC domain WT (Homo sapiens, UniProt P54132 1210-1294).
In data set [2] the target is T1, BLM HRDC domain WT. The source holds these as a separate data set.
The target of the next data set is BLM HRDC T1243A (Homo sapiens, UniProt P54132 1210-1294, T1243A).
The target in another data set is BLM HRDC Y1237A (Homo sapiens, UniProt P54132 1210-1294, Y1237A).

As usually defined, the Kd is the constant that tells how readily two partners part at equilibrium.

T1 sequence (P54132 1210-1294): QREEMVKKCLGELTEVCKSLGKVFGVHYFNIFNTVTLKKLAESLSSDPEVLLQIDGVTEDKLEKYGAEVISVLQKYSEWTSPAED
Chain of BLM HRDC Y1237A (P54132 1210-1294 Y1237A): as the sequence (P54132 1210-1294) above, with Y28A counted along it
Chain of BLM HRDC T1243A (P54132 1210-1294 T1243A): as the sequence (P54132 1210-1294) above, with T34A counted along it

B1: 1SD*/2DD dsDNA 29 bp (dsDNA)
DNA 1: GCGCATATGGAGCGTTTCCAAAGTCTTAG
DNA 2: CTAAGACTTTGGAAACGCTCCATATGCGC
As for B1, the binding result with BLM HRDC domain WT [1] was “no binding”.

B2: 1SD* ssDNA 29 nt (ssDNA)
DNA: GCGCATATGGAGCGTTTCCAAAGTCTTAG
On to B2, for which, in the data set with BLM HRDC domain WT [2], the Kd was ~100 µM. Moreover, the binding result with BLM HRDC T1243A and with BLM HRDC Y1237A was “binds” throughout.
